Results as given in article PMC4474691, “Leukemia-Associated Mutations in Nucleophosmin Alter Recognition by CRM1: Molecular Basis of Aberrant Transport” (PLoS ONE, 2015).

Target: CRM1^HA (high affinity mutant of CRM1) (UniProt Q6P5F9)
Assay: ITC; TFP-NES, YFP-NES or NES peptides at 35–180 μM titrated onto CRM1^HA at 2–14 μM; 20°C; 20 mM HEPES pH 7.4, 50 mM NaCl, 1 mM TCEP, 1 mM MgCl2; independent binding sites model

Row | Substance | Kd [nM] | dH [kcal/mol] | stoichiometry N
1 | TFP-mutA(NES) (domain or fragment) | 2380 | -14.5 | 0.54
2 | peptide ES (short NES motif of NPM mutant E) | 76 | -20.8 | 0.4
3 | peptide AL (long NES motif of NPM mutant A, with Ile284) | 57 | -18.1 | 0.33
4 | TFP-mutE(NES) (domain or fragment) | 1040 | -15.4 | 0.8

Now those with a lower Kd, led by results:

Row | Kd [nM] | dH [kcal/mol] | stoichiometry N | Substance
5 | 31 | -19.8 | 0.51 | peptide EL (long NES motif of NPM mutant E, with Ile284)
6 | 18 | -13.7 | 1.01 | YFP-PKI(NES) (domain or fragment)
